Source: patent CN116262788A (TAIZE HUIKANG BIOMEDICAL CO LTD; BEIJING MIANYI FANGZHOU …, dated 2023)

Tests used:
[1] = molecular target: 人CD27 (稳定表达人CD27的细胞系 HEK::CD27 细胞) (human) (UniProt P26842); experiment: flow cytometry on cells expressing human CD27
[2] = molecular target: T1, 人CD27蛋白 (Cat: 10039-H03H, Sino Biological Inc.) (human, UniProt P26842 21-192); experiment: SPR (Reichert4), human CD27 protein on chip, antibody as analyte, curve 1.25e-8
T1 construct: Bought protein coated on the SPR chip
T1 sequence (looked up): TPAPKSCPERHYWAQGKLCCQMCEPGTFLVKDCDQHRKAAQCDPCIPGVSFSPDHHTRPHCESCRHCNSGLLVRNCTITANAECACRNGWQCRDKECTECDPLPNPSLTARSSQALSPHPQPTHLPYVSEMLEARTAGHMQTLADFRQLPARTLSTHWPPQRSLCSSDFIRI

[3] = molecular target: T1, 人CD27蛋白 (Cat: 10039-H03H, Sino …); experiment: SPR (Reichert4), human CD27 protein on chip, antibody as analyte, curve 2.50e-8
[4] = molecular target: T1, 人CD27蛋白 (Cat: 10039-H03H, Sino …); experiment: SPR (Reichert4), human CD27 protein on chip, antibody as analyte, curve 5.00e-8
[5] = molecular target: T1, 人CD27蛋白 (Cat: 10039-H03H, Sino …); experiment: SPR (Reichert4), human CD27 protein on chip, antibody as analyte, curve printed 625e-9
[6] = molecular target: T2, 人CD27 (稳定表达人CD27的细胞系 HEK::CD27 细胞) (human, UniProt P26842 20-260); experiment: flow cytometry on HEK::CD27 cells, 10 ng and 100 ng antibody
T2 construct: whole, on cells; also called hCD27; 表达hCD27的细胞
T2 sequence (looked up): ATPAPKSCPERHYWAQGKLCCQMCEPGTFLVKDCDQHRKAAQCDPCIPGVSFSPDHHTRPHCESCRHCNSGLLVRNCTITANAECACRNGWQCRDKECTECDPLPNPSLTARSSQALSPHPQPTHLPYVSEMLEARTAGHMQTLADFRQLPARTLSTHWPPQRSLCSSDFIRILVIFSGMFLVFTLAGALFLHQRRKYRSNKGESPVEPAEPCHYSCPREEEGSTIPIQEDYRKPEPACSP

[7] = molecular target: T1, 人CD27蛋白 (Cat: 10039-H03H, Sino …); experiment: SPR (Reichert4), human CD27 protein on chip, antibody as analyte, curve 6.25e-9

B1: 鼠抗人CD27单克隆抗体6D8 (antibody, V domains shown)
VH: QIQLVQSGPELKKPGETVKISCKASGYTFTNYGMNWVKQAPGKGLKWMGWINTNTGEPTYADDFKGRFAFSLETSATTAYLQINNLKNEDTATYFCAREGDGFDSWGQGTTLTVSS
VL: QFVLTQSPAIMSASPGEKVTMTCSATSSVNYMHWYQQKSGTSPKRWIYDTSRLASGVPARFSGSGSGTSYSLTISSMEAEDAATYYCQQWNTNPWTFGGGTKLEIK
notes: it is not clear whether they are whole chains or variable regions only; also called 6D8抗体
[1]
  结合率: > 85%
[2]
  Kd: 514 pM
  koff: 9.69e-05 s⁻¹
  kon: 188000 M⁻¹ s⁻¹
[3]
  Kd: 514 pM
  koff: 9.69e-05 s⁻¹
  kon: 188000 M⁻¹ s⁻¹
[4]
  Kd: 514 pM
  koff: 9.69e-05 s⁻¹
  kon: 188000 M⁻¹ s⁻¹
[5]
  Kd: 514 pM
  koff: 9.69e-05 s⁻¹
  kon: 188000 M⁻¹ s⁻¹

B2: 6D8-G98A (人鼠嵌合抗体) (antibody, V domains shown)
VH: QIQLVQSGPELKKPGETVKISCKASGYTFTNYGMNWVKQAPGKGLKWMGWINTNTGEPTYADDFKGRFAFSLETSATTAYLQINNLKNEDTATYFCAREGDAFDSWGQGTTLTVSS
VL: QFVLTQSPAIMSASPGEKVTMTCSATSSVNYMHWYQQKSGTSPKRWIYDTSRLASGVPARFSGSGSGTSYSLTISSMEAEDAATYYCQQWNTNPWTFGGGTKLEIK
[6]
  binding result: binds

B3: Hu6D8-5 (antibody, human IgG4, V domains shown)
VH: EVQLVQSGAEVKKPGASVKVSCKASGYTFTNYGMNWVRQAPGQGLKWMGWINTNTGEPTYADDFKGRVTMTLDTSISTAYMELSRLRSDDTAVYYCAREGDGFDSWGQGTTVTVSS
VL: QIVLTQSPDFQSVTPKEKVTITCSATSSVNYMHWYQQKPDQSPKRWIYDTSRLASGVPSRFSGSGSGTDYTLTINSLEAEDAATYYCQQWNTNPWTFGGGTKVEIK
[6]
  binding result: binds

B4: Hu6D8-2 (antibody, human IgG4, V domains shown)
VH: EVQLVQSGAEVKKPGASVKVSCKASGYTFTNYGMNWVRQAPGQGLKWMGWINTNTGEPTYADDFKGRVTMTLDTSISTAYMELSRLRSDDTAVYYCAREGDGFDSWGQGTTVTVSS
VL: EIVLTQSPDFQSVTPKEKVTITCSATSSVNYMHWYQQKPDQSPKRWIYDTSRLASGVPSRFSGSGSGTDYTLTINSLEAEDAATYYCQQWNTNPWTFGGGTKVEIK
[6]
  binding result: binds

B5: Hu6D8-4 (antibody, human IgG4, V domains shown)
VH: EVQLVQSGAEVKKPGASVKVSCKASGYTFTNYGMNWVRQAPGQGLKWMGWINTNTGEPTYADDFKGRVTMTLDTSISTAYMELSRLRSDDTAVYYCAREGDGFDSWGQGTTVTVSS
VL: QFVLTQSPDFQSVTPKEKVTITCSATSSVNYMHWYQQKPDQSPKRLIYDTSRLASGVPSRFSGSGSGTDYTLTINSLEAEDAATYYCQQWNTNPWTFGGGTKVEIK
[6]
  binding result: binds

B6: Hu6D8-3 (antibody, human IgG4, V domains shown)
VH: EVQLVQSGAEVKKPGASVKVSCKASGYTFTNYGMNWVRQAPGQGLKWMGWINTNTGEPTYADDFKGRVTMTLDTSISTAYMELSRLRSDDTAVYYCAREGDGFDSWGQGTTVTVSS
VL: QIVLTQSPDFQSVTPKEKVTITCSATSSVNYMHWYQQKPDQSPKRLIYDTSRLASGVPSRFSGSGSGTDYTLTINSLEAEDAATYYCQQWNTNPWTFGGGTKVEIK
[6]
  binding result: binds

B7: Hu6D8-6 (antibody, human IgG4, V domains shown)
VH: EVQLVQSGAEVKKPGASVKVSCKASGYTFTNYGMNWVRQAPGQGLKWMGWINTNTGEPTYADDFKGRVTMTLDTSISTAYMELSRLRSDDTAVYYCAREGDGFDSWGQGTTVTVSS
VL: QFVLTQSPDFQSVTPKEKVTITCSATSSVNYMHWYQQKPDQSPKRWIYDTSRLASGVPSRFSGSGSGTDYTLTINSLEAEDAATYYCQQWNTNPWTFGGGTKVEIK
[6]
  binding result: binds

B8: Hu6D8-1 (antibody, human IgG4, V domains shown)
VH: EVQLVQSGAEVKKPGASVKVSCKASGYTFTNYGMNWVRQAPGQGLKWMGWINTNTGEPTYADDFKGRVTMTLDTSISTAYMELSRLRSDDTAVYYCAREGDGFDSWGQGTTVTVSS
VL: EIVLTQSPDFQSVTPKEKVTITCSATSSVNYMHWYQQKPDQSPKRLIYDTSRLASGVPSRFSGSGSGTDYTLTINSLEAEDAATYYCQQWNTNPWTFGGGTKVEIK
[6]
  binding result: binds

B9: Hu6D8-12 (antibody, human IgG4, V domains shown)
VH: EVQLVQSGAEVKKPGASVKVSCKASGYTFTNYGMNWVRQAPGQGLKWMGWINTNTGEPTYADDFKGRFTFTLDTSISTAYMELSRLRSDDTAVYYCAREGDGFDSWGQGTTVTVSS
VL: QFVLTQSPDFQSVTPKEKVTITCSATSSVNYMHWYQQKPDQSPKRWIYDTSRLASGVPSRFSGSGSGTDYTLTINSLEAEDAATYYCQQWNTNPWTFGGGTKVEIK
[6]
  binding result: binds

B10: Varlilumab (antibody, V domains shown)
VH: QVQLVESGGGVVQPGRSLRLSCAASGFTFSSYDMHWVRQAPGKGLEWVAVIWYDGSNKYYADSVKGRFTISRDNSKNTLYLQMNSLRAEDTAVYYCARGSGNWGFFDYWGQGTLVTVSS
VL: DIQMTQSPSSLSASVGDRVTITCRASQGISRWLAWYQQKPEKAPKSLIYAASSLQSGVPSRFSGSGSGTDFTLTISSLQPEDFATYYCQQYNTYPRTFGQGTKVEIKR
[2]
  Kd: 1.85 pM
  koff: 2.14e-07 s⁻¹
  kon: 116000 M⁻¹ s⁻¹
[3]
  Kd: 1.85 pM
  koff: 2.14e-07 s⁻¹
  kon: 116000 M⁻¹ s⁻¹
[4]
  Kd: 1.85 pM
  koff: 2.14e-07 s⁻¹
  kon: 116000 M⁻¹ s⁻¹
[7]
  Kd: 1.85 pM
  koff: 2.14e-07 s⁻¹
  kon: 116000 M⁻¹ s⁻¹
